B1: unnamed (protein)
chain: MKQFSAKHALAVVVTAGHALAASTQGISEDLYTRLVEMATISQAAYADLCNIPSTIIKGEKIYNSQTDINGWILRDDSSKEIITVFRGTGSDTNLQLDTNYTLTPFDTLPQCNGCEVHGGYYIGWVSVQDQVESLVKQQVSQYPDYALTVTGHSLGASLAALTAAQLSATYDNIRLYTFGEPRSGNQAFASYMNDAFQASSPDTTQYFRVTHANDGIPNLPPVEQGYAHGGVEYWSVDPYSAQNTFVCTGDEVQCCEAQGGQGVNNAHTTYFGMTSGACTW
B2: unnamed (protein)
chain: MKQFSAKHALAVVVTAGHALAASTQGISEDLYTRLVEMATISQAAYADLCNIPSTIIKGEKIYNSQTDINGWILRDDSSKEIITVFRGTGSITNLQLDTNYTLTPFDTLPQCNGCEVHGGYYIGWVSVQDQVESLVKQQVSQYPDYALTVTGHSLGASLAALTAAQLSATYDNIRLYTFGEPRSGNQAFASYMNDAFQASSPDTTQYFRVTHANDGIPNLPPVEQGYAHGGVEYWSVDPYSAQNTFVCTGDEVQCCEAQGGQGVNNAHTTYFGMTSGACTW
B3: unnamed (protein)
chain: MKQFSAKHALAVVVTAGHALAASTQGISEDLYTRLVEMATISQAAYADLCNIPSTIIKGEKIYNSQTDINGWILRDDSSKEIITVFRGTGSDTNLQLNTNYTLTPFDTLPQCNGCEVHGGYYIGWVSVQDQVESLVKQQVSQYPDYALTVTGHSLGASLAALTAAQLSATYDNIRLYTFGEPRSGNQAFASYMNDAFQASSPDTTQYFRVTHANDGIPNLPPVEQGYAHGGVEYWSVDPYSAQNTFVCTGDEVQCCEAQGGQGVNNAHTTYFGMTSGACTW
B4: unnamed (protein)
chain: MKQFSAKHALAVVVTAGHALAASTQGISEDLYTRLVEMATISQAAYADLCNIPSTIIKGEKIYNSQTDINGWILRDDSSKEIITVFRGTGSDTNLQLDTNFTLTPFDTLPQCNGCEVHGGYYIGWVSVQDQVESLVKQQVSQYPDYALTVTGHSLGASLAALTAAQLSATYDNIRLYTFGEPRSGNQAFASYMNDAFQASSPDTTQYFRVTHANDGIPNLPPVEQGYAHGGVEYWSVDPYSAQNTFVCTGDEVQCCEAQGGQGVNNAHTTYFGMTSGACTW
B5: unnamed (protein)
chain: MKQFSAKHALAVVVTAGHALAASTQGISEDLYTRLVEMATISQAAYADLCNIPSTIIKGEKIYNSQTDINGWILRDDSSKEIITVFRGTGSDRNLQLDTNYTLTPFDTLPQCNGCEVHGGYYIGWVSVQDQVESLVKQQVSQYPDYALTVTGHSLGASLAALTAAQLSATYDNIRLYTFGEPRSGNQAFASYMNDAFQASSPDTTQYFRVTHANDGIPNLPPVEQGYAHGGVEYWSVDPYSAQNTFVCTGDEVQCCEAQGGQGVNNAHTTYFGMTSGACTW
B6: unnamed (protein)
chain: MKQFSAKHALAVVVTAGHALAASTQGISEDLYTRLVEMATISQAAYADLCNIPSTIIKGEKIYNSQTDINGWILRDDSSKEIITVFRGTGSDTNLQLITNYTLTPFDTLPQCNGCEVHGGYYIGWVSVQDQVESLVKQQVSQYPDYALTVTGHSLGASLAALTAAQLSATYDNIRLYTFGEPRSGNQAFASYMNDAFQASSPDTTQYFRVTHANDGIPNLPPVEQGYAHGGVEYWSVDPYSAQNTFVCTGDEVQCCEAQGGQGVNNAHTTYFGMTSGACTW

What follows are proteins tested on 2-(1-Naphthyl)butanoic acid. Settings: pH 5; 37 °C.

Row | Protein | Km | kcat | kcat/Km
1 | B1 | 330 µM | 2.33 s⁻¹ | 7060 s⁻¹ M⁻¹
2 | B2 | 290 µM | 2.7 s⁻¹ | 9310 s⁻¹ M⁻¹
3 | B5 | 630 µM | 3.77 s⁻¹ | 5980 s⁻¹ M⁻¹

Each protein was assayed on alpha-Naphthyl caprylate. Settings: pH 5; 37 °C.

Row | Protein | Km | kcat | kcat/Km
4 | B1 | 79 µM | 0.85 s⁻¹ | 10800 s⁻¹ M⁻¹
5 | B2 | 50 µM | 0.64 s⁻¹ | 12800 s⁻¹ M⁻¹
6 | B4 | 20 µM | 1.09 s⁻¹ | 54500 s⁻¹ M⁻¹
7 | B5 | 17 µM | 0.32 s⁻¹ | 18800 s⁻¹ M⁻¹

These proteins were tested on 2-(1-Naphthyl)butanoic acid. Settings: pH 7; 37 °C.

Row | Protein | Km | kcat | kcat/Km
8 | B3 | 180 µM | 32.1 s⁻¹ | 178000 s⁻¹ M⁻¹

Same assay, conditions: pH 6; 37 °C

Row | Protein | Km | kcat | kcat/Km
9 | B4 | 630 µM | 3.38 s⁻¹ | 5370 s⁻¹ M⁻¹

Same assay, conditions: pH 7.5; 37 °C

Row | Protein | Km | kcat | kcat/Km
10 | B6 | 150 µM | 3.72 s⁻¹ | 24800 s⁻¹ M⁻¹
